Experimental data reported in the supplement of paper PMC10567573.

B1: DFFB (parent)
chain: TLVEAIKEQDGREVDWEYFYGLLF
B2: C2CD2L (parent)
chain: LTLKVLRSSSCGDTELLGQATLPV

Variants of: B1
Experiment: protein stability index of a GFP-peptide fusion (GPS, HEK-293T) (PSI 1-6); higher = more stable
Conditions: c terminus: a fixed tail appended
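Further: lentivirally expressed fusions sorted by FACS into six bins by GFP to DsRed ratio, PSI derived from sequencing read proportions per bin multiplied by bin number.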

Protein stability index of substitutions, site by site:
L22: R 1.8; T 2.58; V 1.96; F 1.52; P 3.28; A 2; W 1.1; E 2.51; Y 1.86; I 1.97; D 2.62; Q 2.94; M 1.85; H 2.43; S 2.49; C 2.04
L23: H 2.07; D 2; V 1.92; Y 2.86; F 2.26; I 2.24; Q 2.37; R 2.5; S 2.1; A 1.86; W 2.21; E 2.19; M 2.12; P 2.18; C 1.6; K 2.03
F24: P 2.53; Y 2.31; N 1.95; E 2.22; W 1.07; K 1.79; C 2.23; S 2.52; R 1.63; T 2.42; H 2.2; D 2.21; A 1.69; Q 2.27; L 1.7; I 1.93

Variants of: B2
Experiment: as above
Conditions: c terminus: a fixed tail appended

Protein stability index of substitutions, site by site:
C11: V 2.53; Q 1.43; N 2.04; P 1.34; E 1.66; K 2.11; S 3.41; G 2.58; Y 3.16; H 1.63; T 2.36; L 2.78; R 1.9; D 1.8; M 2.48; I 4.68; A 1.55
T2: P 2.8; E 1.92; W 2.99; A 1.66; Y 2.94; G 1.93; Q 2.93; R 1.64; C 2.32; K 2.17; D 1.95; H 1.3; I 2.9
E15: L 3.22; Y 2.19; N 3.3; F 3.12; P 2.61; S 3.58; Q 2.47; A 3.85; T 2.83; I 3.24; D 1.41
L16: Y 1.37; D 2.69; C 2.07; A 1.79; Q 1.78; I 2.19; F 2.34; V 4.08; H 1.43; R 1.8; T 2.01; G 1.97; S 1.72; N 1.92; P 1.97; M 1.86; K 1.9
L3: M 1.46; S 2.74; I 4.28; W 2.45; C 1.68; P 3.51; T 2.71; K 3.07; Q 2.87; E 3.55; Y 1.59; N 3.56; F 2.31; R 2.63; D 3.35; A 2.59; G 2.16; H 2.51
G18: F 2.89; N 2.11; T 1.18; C 2.07; Y 1.77; K 1.71; M 2.32; A 1.97; P 2.11; E 2.26; L 3.01; R 2.06; Q 1.78; S 1.97; V 2.88; D 2.28; H 1.43
Q19: G 1.91; C 4.52; M 3.83; E 2.86; F 3.05; K 2.78; I 4.42; H 2.94; D 1.61
L17: D 2.89; K 2.05; Y 1.57; P 2.15; T 1.92; R 1.35; M 1.11; H 1.24; S 1.28; A 2.08; C 2.18; V 2.44; I 2.4; Q 2.1; F 2.92; E 2.7; W 2.04; N 3.12; G 1.86
L1: Y 1.77; S 2.74; Q 2.96; H 2.24; K 1.99; W 2.67; G 2.56; F 1; E 2.76; A 4.09; D 3.35; I 2.76; R 2.29; T 2.04; M 2.63; N 2.97; C 2.58; P 2.9
G12: N 1.56; Y 1.42; K 2.95; D 2.05; F 3.92; S 1.92; Q 2.12; A 1.66; T 1.82; H 1.97; W 3.06; I 2.27; P 1.82; R 2.71; L 2.82; V 1.99; E 1.88; M 3.71
S8: D 1.93; M 3.9; N 3.13; E 1.72; W 4.16; F 4.03; R 3.03
S10: V 3.73; E 1.75; F 2.93; H 3; I 1.76; A 3.7; P 2.45; Q 1.78; D 2; C 3.45; Y 3.53; M 5.18; L 2.44; N 1.67; W 4.07; T 3.38; K 3.12
T14: H 2.47; C 1.79; M 2.03; K 1.04; A 3.11; P 2.74; N 1.91; G 3.33; E 2.58; D 2.2; S 1.8; R 2.06; Y 3.11; Q 1.95
K4: N 1.19; P 2.66; M 1.06; D 1.94; W 2.53; E 2.12; S 1.18; Y 3.27; F 2.97; V 2.8; C 2.5; G 2.46; H 1.65
S9: D 1.72; N 1.82; M 3.09; E 1.1; V 1.09; K 1.4; Q 1.43; W 3.38; C 1.76; P 1.71; L 1.16; I 2.11; F 2.54; A 1.95; H 2.94; R 3.44
L6: C 1.69; N 2.19; E 2.49; F 2.21; V 3.39; Q 2.59; G 1.96; A 3.16; Y 3.33; I 2.83; R 2.03; P 2.24; K 2.17; D 2.47; H 2.13; T 1.26; S 1.89
V5: F 1.86; C 1.76; E 2.82; Y 2.69; S 2.11; D 2.97; K 2.17; Q 2.3; L 2.75; T 1.83; A 2.3; R 2.05; I 2.08; N 2.26; H 2.27; M 1.75; P 2.38; G 2.52
R7: H 2.61; V 1.85; N 1.19; Q 1.33; P 2.08; E 1.96; C 3.71; A 1.19; D 2.02; S 1.13; T 2.88; K 3.05; M 2.32; G 1.37; L 3.52
D13: F 3.62; R 1.47; Y 2.16; W 3.58; C 3.28; Q 2.24; I 3.63; G 4.31; T 3.72; S 2.38; N 2.85; P 2.02
